In data set [1] the target is T1, E. coli L-ASNase (EcA) (Escherichia coli, UniProt P00805).
T1 construct: gene ansB; made in cytosol of E. coli C41(DE3) from His6-SUMO-pET14b, His-SUMO tag cut with SUMO protease, gel filtration; family forms tetramers
T1 sequence (P00805 23-348): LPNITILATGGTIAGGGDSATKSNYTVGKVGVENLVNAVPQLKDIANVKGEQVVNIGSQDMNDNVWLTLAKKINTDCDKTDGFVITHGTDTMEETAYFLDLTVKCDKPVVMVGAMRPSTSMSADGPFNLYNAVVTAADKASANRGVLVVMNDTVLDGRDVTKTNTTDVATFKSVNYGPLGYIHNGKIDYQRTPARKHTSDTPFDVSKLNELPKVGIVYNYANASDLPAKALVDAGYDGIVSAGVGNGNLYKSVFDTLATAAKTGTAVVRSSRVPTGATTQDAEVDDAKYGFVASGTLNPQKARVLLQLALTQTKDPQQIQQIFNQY
Briefly: continuous coupled NADH assay (L-glutamic dehydrogenase); NMR. In kind it is biochemical. As to conditions: 5 mM GLN, 10 nM enzyme (spectrophotometric); 0.1 and 2 μM enzyme (NMR).

For data set [2], the target named is T2, EBD-200 (Cavia porcellus, UniProt H0W0T5).
T2 construct: gene ASPG
T2 sequence (H0W0T5 1-359): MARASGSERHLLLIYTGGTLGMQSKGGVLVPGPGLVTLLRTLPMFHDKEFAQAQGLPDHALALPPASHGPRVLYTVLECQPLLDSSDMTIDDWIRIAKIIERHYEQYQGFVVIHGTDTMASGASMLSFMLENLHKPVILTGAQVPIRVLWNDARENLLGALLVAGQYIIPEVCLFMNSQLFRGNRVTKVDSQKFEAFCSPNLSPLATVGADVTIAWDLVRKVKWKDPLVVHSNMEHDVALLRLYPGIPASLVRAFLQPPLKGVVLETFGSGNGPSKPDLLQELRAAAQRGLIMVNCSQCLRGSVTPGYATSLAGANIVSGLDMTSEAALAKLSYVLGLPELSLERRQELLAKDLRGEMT
As to conditions: read-out: EBD-200 ^a; 50 mM Tris-HCl pH 7.5, 200 mM NaCl, 37 °C. From the text: continuous coupled NADH spectrophotometric assay (malic dehydrogenase / glutamic-oxalacetic transaminase) on EBD-200

Substrate in data set [3]: NC(=O)C[C@H](N)C(=O)O
Briefly: continuous coupled NADH spectrophotometric assay (malic dehydrogenase / glutamic-oxalacetic transaminase). In kind it is biochemical, Escherichia coli. Particulars: 50 mM Tris-HCl pH 7.5, 200 mM NaCl, 37 °C.

Substrate in data set [4]: NC(=O)C[C@H](N)C(=O)O
Briefly: purified protein. Particulars: 50 mM Tris-HCl pH 7.5, 200 mM NaCl, 37 °C, in-house preparation, 0.6 % WT contamination, printed as >1.4 mM.

The term kcat denotes the maximal rate divided by the concentration of active sites.

Numbering of substitutions follows the chain as printed. Numbers in names are those of the source.

Regarding `NC(=O)CC[C@H](N)C(=O)O` [L-GLN], the “continuous coupled NADH assay (L-glutamic dehydrogenase); NMR” value in data set [1] is recorded as “GLNase activity is easily observed by EcA but not by EBD-200”.

Consider `NC(=O)C[C@H](N)C(=O)O` [L-ASN], for which the Km in data set [2] was 41.3 ± 0.7 µM.

B1: E. coli L-ASNase (EcA) (Escherichia coli K-12) (protein)
chain: T1 sequence (P00805 23-348)
notes: made in cytosol of E. coli C41(DE3) from His6-SUMO-pET14b, His-SUMO tag cut with SUMO protease, gel filtration; family forms tetramers
As for B1, in data set [3], the Km was 14 µM and the kcat was 44 s⁻¹.

B2: E. coli L-ASNase (EcA) (Escherichia coli K-12; Q81L) (protein)
chain: T1 sequence (P00805 23-348) with Q59L
On to B2, for which, in data set [4], the Km was 1400 µM and the kcat was 1.3 s⁻¹.

The record behind these values is publication PMC12177098, “A human-like glutaminase-free asparaginase is highly efficacious in ASNS^low leukemia and solid cancer mouse xenograft models” (Cancer letters, 2024).
